Reference: US20060020110A1, “Synthetic peptides that bind to the hepatitis B virus core and E antigens” (priority 2000, published 2006)
Like-named read-outs stand apart in the source and are kept apart here.

Tests used:
HBcAg [1] = target: T1, HBcAg (Hepatitis B virus genotype D subtype ayw, UniProt P03146); conditions: for Inhibition of mAb 4-2 binding to HBcAg (in words): peptide contacted with HBcAg prior to antibody; for OD at 490 nm, mAb 4-2 binding to HBcAg: peptide added prior to addition of mAb, uninhibited control mean OD 0.871
T1 sequence (P03146 whole entry, the tested form may be a part): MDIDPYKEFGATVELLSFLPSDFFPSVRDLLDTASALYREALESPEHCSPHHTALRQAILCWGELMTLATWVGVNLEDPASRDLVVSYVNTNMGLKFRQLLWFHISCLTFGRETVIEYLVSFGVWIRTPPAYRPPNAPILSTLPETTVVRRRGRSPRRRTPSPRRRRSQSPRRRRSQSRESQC
From the text: (§1) One approach to rational drug design involves sequential amino acid deletion of a known binding partner starting from either the amino or carboxy termini. Amino-terminal deletions of the binding partners of SEQ. ID. Nos. 5 and 17 were made and these peptide fragments were joined to a support and analyzed for the ability to bind HBcAg. […] ID. […] The amino-terminal deletions of the peptide of SEQ. ID. […] The amino-terminal deletion products of the peptide of SEQ. ID. […] ID.
(§2) Variations of the characterization assays described above include competitive binding assays. […] Initial experiments were conducted by contacting binding partner to HBcAg prior to introducing the antibody. […] ID. […] ID. […] ID. […] ID. […] ID. […] ID.

HBeAg [2] = target: T2, HBeAg (Hepatitis B virus genotype D subtype ayw, UniProt P0C573); assay: Binding of HBeAg to support-bound peptides (EIA); conditions: antigen at concentrations as low as 0.67 μg/ml, TABLE 8
T2 construct: containing nine residues of pre-core and the 150 first residues of HBcAg; made in house
T2 sequence (P0C573 21-179): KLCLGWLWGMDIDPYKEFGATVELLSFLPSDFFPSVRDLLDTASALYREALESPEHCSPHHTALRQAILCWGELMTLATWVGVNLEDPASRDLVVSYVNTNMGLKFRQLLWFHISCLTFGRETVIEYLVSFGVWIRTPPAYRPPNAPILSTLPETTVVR

HBcAg [3] = target: T1, HBcAg; conditions: for Lowest peptide concentration that prevented binding of mAb 4-2: peptide in the presence of mAb 4-2
Experimental: as §2

HBcAg [4] = target: T1, HBcAg; conditions: for Binding of 10 μg/ml HBcAg to dilutions of support-bound peptide (in words): at low concentrations, TABLE 9; for Binding to HBcAg (in words): support-bound peptides; for OD at 490 nm, HBcAg binding to support-bound amino terminal deletion peptides: HBcAg added at 5 μg/ml
From the text: as §1
To determine whether a candidate binding partner bound to HBcAg and/or HbeAg, a multimeric support-based binding assay was performed. Accordingly, synthetic peptides corresponding to the VH and VL domains of the sequenced mAbs were passively adsorbed to 96 well microplates in serial dilutions starting at 200 μg/ml. The peptide coated plates were then incubated with HBcAg and HBeAg serially diluted in PBS-GT. The amount of HBcAg and HBeAg bound by the peptides was then detected using a mAb directed to an epitope common to HBcAg and HBeAg (See Sällberg et al., J General Virology 74:1335-1340 (1993), herein expressly incorportaed by reference in its entirety) diluted 1:3000 in PBS-GT. The quantity of bound mAb was determined by addition by peroxidase labeled rabbit anti-mouse IgG (P260, Dako A S, Denmark). The plates were developed by incubation with ortho-phenylene-diamine (Sigma) and the absorbance at 492 nm was evaluated.
The converse of an aspect of this experiment was also performed. That is, various dilutions of support-bound binding partners (SEQ. ID. Nos. 5, 16, 17, 28, and 29) were contacted with 10 μg/ml of HBcAg and binding was evaluated. ID.

mAb specific for HSV gG2 = assay: gG2 mAb binding to fusion peptide on solid phase; conditions: for gG2 mAb binding to indicated antigen on solid phase: fusion peptide: no addition of fusion peptide in solution; for Binding of mAb specific for HSV gG2 to coated specificity exchanger (in words): specificity exchanger coated onto microtiterplates
From the text: (§3) ID. […] The specificity exchangers provided in SEQ. ID. […] Similarly, the specificity exchangers provided in SEQ. ID.

HBcAg [5] = target: T1, HBcAg; conditions: for gG2 mAb binding to indicated antigen on solid phase: HBcAg: fusion peptide in solution 20 μg/well
Experimental: To evaluate the efficacy of the specificity exchangers described above, several binding assays using a mAb specific for HSV gG2 were conducted. In one assay, the various specificity exchangers were coated onto microtiterplates and were bound with the mAb specific for HSV gG2. […] ID. […] In another assay, HBcAg was coated onto microtiter plates, specificity exchanger was added (20 μg/well), and the binding of the mAb specific for HSV gG2 was determined. […] ID. […] In another binding assay, HBeAg was coated onto microtiter plates, specificity exchanger was added (20 μg/well), and the binding of the mAb specific for HSV gG2 was determined. […] ID. […] The characterization assays used to evaluate binding partners can also be used and/or modified for the analysis of the specificity exchangers.

HBeAg [6] = target: T2, HBeAg; assay: Redirection of HSV gG2 mAb to HBeAg on solid phase by fusion peptide in solution; type: binding; conditions: for gG2 mAb binding to indicated antigen on solid phase: HBeAg: fusion peptide in solution 20 μg/well
From the text: as §3

[7] = tested on: B cell - mediated antigen presentation of HBcAg to experienced T cells; assay: Inhibition of B cell-mediated antigen presentation of HBcAg to experienced T cells; type: cell-based, Balb/c mice
Experimental: A characterization assay that was used to evaluate the ability of a binding partner to modulate a host immune system response to HBV was conducted as follows. Groups of Balb/c mice were immunized subcutaneously with 20 μg HBcAg. Ten days later, draining lymph nodes were harvested and experienced CD4^+ T cells were purified using anti-CD4 coated magnetic beads (Dynal A S, Oslo, Norway) according to the manufacturers instructions. Naïve B cells were obtained from syngeneic mice, which had not been immunized. These B cells were used as antigen presenting cells in the characterization assay.
The ability of the different mAbs and peptides to block B cell uptake and antigen presentation of HBcAg-peptides to HBcAg-specific CD4+ T cells was then tested in vitro. The cell populations were mixed at a B/T cell ratio of 1:5 and added at a final concentration of approximately 2.5×10^5 to 5.0×10^5 cells per well in a 96 well microplate. Approximately, 20 μg of HBcAg was preincubated with the binding partner. The binding partner mixtures were then added to the cells and the plates were incubated for 26 to 96 hours at 37° C. The effect of the binding partners on T cell proliferation was determined by monitoring [^3H] thymidine incorporation.

[8] = concentrations as low as 100 μg/ml
[9] = peptide 100 μg/ml in the presence of mAb 4-2
[10] = peptide 200 μg/ml in the presence of mAb 4-2
[11] = antigen at concentrations as low as 0.67 μg/ml, TABLE 8
[12] = concentrations as low as 50 μg/ml
[13] = specificity exchanger 20 μg/well

| Sequence | Inhibition of mAb 4-2 binding to HBcAg (in words) (HBcAg [1]; peptide 200 μg/ml) | Binding to HBeAg (in words) (HBeAg [2]) | Binding to HBcAg (in words) (HBcAg [4]; TABLE 7) | Binding to HBcAg (in words) (HBcAg [4]; [11]) | gG2 mAb binding to indicated antigen on solid phase: fusion peptide (mAb specific for HSV gG2) | gG2 mAb binding to indicated antigen on solid phase: HBcAg (HBcAg [5]) | gG2 mAb binding to indicated antigen on solid phase: HBeAg (HBeAg [6]) | also measured |
| --- | --- | --- | --- | --- | --- | --- | --- | --- |
| VKPGASVKISCKASGYSFTG (Synthetically prepared amino acid sequence) [Peptide 25] | able to inhibit binding of mAb 4-2 | appreciable binding | high affinity | appreciable binding | – | – | – | Inhibition of mAb 4-2 binding to HBcAg (in words) (HBcAg [1]; [8]): effectively reduced binding of the antibody; Competition with mAb 4-2 for binding to HBcAg (in words) (HBcAg [3]; [9]): effectively competed with mAb 4-2; Competition with mAb 4-2 for binding to HBcAg (in words) (HBcAg [3]; [10]): significantly inhibited; Lowest peptide concentration that prevented binding of mAb 4-2 (HBcAg [3]): 12.5 µg/mL; Binding of 10 μg/ml HBcAg to dilutions of support-bound peptide (in words) (HBcAg [4]): appreciable binding at low concentrations |
| VKPGASVKLSCKASGYIFTS (Synthetically prepared amino acid sequence) [Peptide 2] | able to inhibit binding of mAb 4-2 | appreciable binding | high affinity | appreciable binding | – | – | – | Inhibition of mAb 4-2 binding to HBcAg (in words) (HBcAg [1]; [12]): appreciably reduced binding of mAb 4-2; Inhibition of mAb 4-2 binding to HBcAg (in words) (HBcAg [1]; [8]): effectively reduced binding of the antibody; Competition with mAb 4-2 for binding to HBcAg (in words) (HBcAg [3]; [9]): effectively competed with mAb 4-2; Competition with mAb 4-2 for binding to HBcAg (in words) (HBcAg [3]; [10]): significantly inhibited; Lowest peptide concentration that prevented binding of mAb 4-2 (HBcAg [3]): 6.25 µg/mL; Binding of 10 μg/ml HBcAg to dilutions of support-bound peptide (in words) (HBcAg [4]): appreciable binding at low concentrations |
| KLSCKASGYIFTSHRGGPEEF [SEQ. ID. No. 71] | – | – | – | – | 1.622 | 0.550 | 0.638 | Binding of mAb specific for HSV gG2 to coated specificity exchanger (in words) (mAb specific for HSV gG2): appreciably bound the mAb; Binding to immobilized HBcAg allowing binding of HSV gG2 mAb (in words) (HBcAg [5]; [13]): appreciably bound the immobilized HBcAg; Binding to immobilized HBeAg allowing binding of HSV gG2 mAb (in words) (HBeAg [6]; [13]): appreciably bound the immobilized HBeAg |
| VKLSCKASGYIFTSGGPEEFE [SEQ. ID. No. 76] | – | – | – | – | 0.018 | 0.025 | 0.024 | – |
| CKASGYSFTGYNMNWVKQSH (Synthetically prepared amino acid sequence) [Peptide 26] | able to inhibit binding of mAb 4-2 | appreciable binding | high affinity | appreciable binding | – | – | – | Inhibition of mAb 4-2 binding to HBcAg (in words) (HBcAg [1]; [12]): appreciably reduced binding of mAb 4-2; Inhibition of mAb 4-2 binding to HBcAg (in words) (HBcAg [1]; [8]): effectively reduced binding of the antibody; Competition with mAb 4-2 for binding to HBcAg (in words) (HBcAg [3]; [9]): effectively competed with mAb 4-2; Competition with mAb 4-2 for binding to HBcAg (in words) (HBcAg [3]; [10]): significantly inhibited |
| KLSCKASGYIFTSEHRGGPEE [SEQ. ID. No. 70] | – | – | – | – | 0.040 | 0.020 | 0.022 | – |
| QQKPGQPPKLLIKYASNLES (Synthetically prepared amino acid sequence) [Peptide 16] | – | – | – | – | – | 0.038 | 0.022 | Inhibition of B cell mediated antigen presentation of HBcAg to specific CD4+ T cells (in words) [7]: no inhibition; cpm ([3H] thymidine incorporation, T cell proliferation) ([7]; T + B cells, 20 μg HBcAg preincubated with inhibitor, positive control 573, background 110): 572 cpm; % inhibition of APC ([7]; T + B cells, 20 μg HBcAg, calculated from cpm versus positive control and background proliferation): 0% |
| KLSCKASGYIFTSRGGPEEFE [SEQ. ID. No. 72] | – | – | – | – | 0.062 | 0.016 | 0.040 | – |
| VKLSCKASGYIFTSEHRGGPE [SEQ. ID. No. 73] | – | – | – | – | 0.060 | 0.038 | 0.029 | – |
| VKLSCKASGYIFTSHRGGPEE [SEQ. ID. No. 75] | – | – | – | – | 0.213 | 0.037 | 0.032 | Binding of mAb specific for HSV gG2 to coated specificity exchanger (in words) (mAb specific for HSV gG2): appreciably bound the mAb |
| VKLSCKASGYIFTS [SEQ. ID. No. 44] | – | – | – | – | – | – | – | OD at 490 nm, mAb 4-2 binding to HBcAg (HBcAg [1]): 0.152; OD at 490 nm, HBcAg binding to support-bound amino terminal deletion peptides (HBcAg [4]): 3.703 |
| ISCRASQSVSTSSYSYMHWY (Synthetically prepared amino acid sequence) [Peptide 14] | able to inhibit binding of mAb 4-2 | appreciable binding | high affinity | appreciable binding | – | – | – | Binding of 10 μg/ml HBcAg to dilutions of support-bound peptide (in words) (HBcAg [4]): appreciable binding at low concentrations |
| GASVKLSCKASGYIFTS [SEQ. ID. No. 41] | – | – | – | – | – | – | – | OD at 490 nm, mAb 4-2 binding to HBcAg (HBcAg [1]): 0.205; OD at 490 nm, HBcAg binding to support-bound amino terminal deletion peptides (HBcAg [4]): 2.863 |
